Data: patent US20250376490A1, “C[…]-DERIVED PEPTIDE-NUCLEIC ACID HYBRID MOLECULE FOR TREATING INFECTION CAUSED BY MUTATED CORONAVIRUS” (priority 2022, published 2025)

Target: Omicron RBD (Severe acute respiratory syndrome coronavirus 2, UniProt P0DTC2, E484A/G339D/G446S/G496S/K417N/N440K/N501Y/Q493R/Q498R/S371L/S373P/S375F/S477N/T478K/Y505H)

Substance: R7-02 (LGKGDFRK)
- RBD binding to highly mutated variant (Omicron) versus wild type: most strongly recognized
